Results reported in paper PMC7435230, “Selection of a Full Agonist Combinatorial Antibody that Rescues Leptin Deficiency In Vivo” (Advanced Science, 2020).
Numbering of substitutions follows the chain as printed. Blank lines part the entries; values can stand above or below the binder they belong to.

Experiments:
[1] = target: T1, mLepR in mouse brain tissue sections (paraventricular nucleus of the hypothalamus) (Mus musculus, C57BL/6 (wild type, …, UniProt P48356)); assay: immunostaining of cells or tissue; 30 um brain sections of wild type, ob/ob and db/db mice, fixed in 4% PFA; staining as for cells; paraventricular nucleus of the hypothalamus; conditions: one partner purified
T1 construct: leptin receptor (LepR), mouse, endogenous in hypothalamus; Fixed tissue sections; also called LepR in tissue; source: endogenous, brain sections of wild type, ob/ob and db/db C57BL/6 mice
T1 sequence (P48356 22-839): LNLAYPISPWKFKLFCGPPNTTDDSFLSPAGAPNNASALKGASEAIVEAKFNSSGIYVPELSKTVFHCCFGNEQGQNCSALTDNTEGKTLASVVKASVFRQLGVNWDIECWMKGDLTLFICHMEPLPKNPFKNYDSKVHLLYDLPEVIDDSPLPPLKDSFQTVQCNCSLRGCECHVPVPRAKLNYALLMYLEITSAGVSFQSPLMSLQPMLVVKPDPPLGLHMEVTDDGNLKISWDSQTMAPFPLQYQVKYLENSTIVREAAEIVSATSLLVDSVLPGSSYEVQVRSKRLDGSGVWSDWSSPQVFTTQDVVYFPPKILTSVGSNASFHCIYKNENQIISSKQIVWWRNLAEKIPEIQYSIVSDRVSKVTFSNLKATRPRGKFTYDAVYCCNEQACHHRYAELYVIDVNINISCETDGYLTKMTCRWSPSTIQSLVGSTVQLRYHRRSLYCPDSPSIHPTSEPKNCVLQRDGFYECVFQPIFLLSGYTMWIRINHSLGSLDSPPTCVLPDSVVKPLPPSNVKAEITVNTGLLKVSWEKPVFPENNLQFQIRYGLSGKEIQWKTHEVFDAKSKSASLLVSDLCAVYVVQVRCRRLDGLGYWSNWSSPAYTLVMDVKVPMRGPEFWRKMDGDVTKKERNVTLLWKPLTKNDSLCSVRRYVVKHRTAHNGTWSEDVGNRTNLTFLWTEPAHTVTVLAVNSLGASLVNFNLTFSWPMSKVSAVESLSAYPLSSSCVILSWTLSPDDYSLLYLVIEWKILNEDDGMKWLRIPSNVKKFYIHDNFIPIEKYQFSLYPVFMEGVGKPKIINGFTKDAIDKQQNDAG

[2] = target: T2, extracellular domain of human leptin receptor with C-terminal human-Fc tag (human, UniProt P48357 22-839); assay: ELISA; competition with coated leptin, 20 nM hLepR-ECD-Fc
T2 chain: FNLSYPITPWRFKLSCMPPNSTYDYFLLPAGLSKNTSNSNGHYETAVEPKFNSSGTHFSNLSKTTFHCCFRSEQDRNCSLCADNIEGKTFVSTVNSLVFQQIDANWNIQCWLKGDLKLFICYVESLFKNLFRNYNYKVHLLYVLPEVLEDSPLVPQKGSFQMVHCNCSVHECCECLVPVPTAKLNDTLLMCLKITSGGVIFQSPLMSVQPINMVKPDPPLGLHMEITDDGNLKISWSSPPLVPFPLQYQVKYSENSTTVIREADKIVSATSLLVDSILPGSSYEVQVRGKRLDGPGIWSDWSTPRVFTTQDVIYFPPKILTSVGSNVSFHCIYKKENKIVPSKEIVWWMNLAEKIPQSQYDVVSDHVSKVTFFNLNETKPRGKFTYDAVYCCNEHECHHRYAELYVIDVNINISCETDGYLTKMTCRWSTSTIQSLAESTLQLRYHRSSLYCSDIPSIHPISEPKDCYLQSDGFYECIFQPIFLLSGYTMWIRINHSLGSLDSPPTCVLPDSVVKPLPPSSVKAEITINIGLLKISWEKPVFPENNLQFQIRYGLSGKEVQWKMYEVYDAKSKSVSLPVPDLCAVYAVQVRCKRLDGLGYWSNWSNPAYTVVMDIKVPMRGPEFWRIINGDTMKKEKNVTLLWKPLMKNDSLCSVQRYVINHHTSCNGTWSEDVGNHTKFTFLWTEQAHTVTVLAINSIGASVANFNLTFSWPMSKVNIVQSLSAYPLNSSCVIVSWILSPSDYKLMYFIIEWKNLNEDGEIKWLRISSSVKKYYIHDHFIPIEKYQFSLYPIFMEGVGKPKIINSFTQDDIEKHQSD

[3] = target: T3, mouse leptin receptor tagged with eYFP, on HEK293 cells (Mus musculus, UniProt P48356); assay: immunostaining of cells or tissue; transiently transfected HEK293 cells expressing LepR-eYFP, fixed in 4% PFA; primary antibodies 5 ug/mL at 4 C overnight; Alexa Fluor 555 goat anti-human IgG; conditions: one partner purified
T3 construct: leptin receptor (LepR), mouse; also called mLepR-eYFP; mLepR; source: HEK293, transiently transfected, on cells (fixed); not shown: eYFP, C-terminal, kept
T3 sequence (P48356 22-1162): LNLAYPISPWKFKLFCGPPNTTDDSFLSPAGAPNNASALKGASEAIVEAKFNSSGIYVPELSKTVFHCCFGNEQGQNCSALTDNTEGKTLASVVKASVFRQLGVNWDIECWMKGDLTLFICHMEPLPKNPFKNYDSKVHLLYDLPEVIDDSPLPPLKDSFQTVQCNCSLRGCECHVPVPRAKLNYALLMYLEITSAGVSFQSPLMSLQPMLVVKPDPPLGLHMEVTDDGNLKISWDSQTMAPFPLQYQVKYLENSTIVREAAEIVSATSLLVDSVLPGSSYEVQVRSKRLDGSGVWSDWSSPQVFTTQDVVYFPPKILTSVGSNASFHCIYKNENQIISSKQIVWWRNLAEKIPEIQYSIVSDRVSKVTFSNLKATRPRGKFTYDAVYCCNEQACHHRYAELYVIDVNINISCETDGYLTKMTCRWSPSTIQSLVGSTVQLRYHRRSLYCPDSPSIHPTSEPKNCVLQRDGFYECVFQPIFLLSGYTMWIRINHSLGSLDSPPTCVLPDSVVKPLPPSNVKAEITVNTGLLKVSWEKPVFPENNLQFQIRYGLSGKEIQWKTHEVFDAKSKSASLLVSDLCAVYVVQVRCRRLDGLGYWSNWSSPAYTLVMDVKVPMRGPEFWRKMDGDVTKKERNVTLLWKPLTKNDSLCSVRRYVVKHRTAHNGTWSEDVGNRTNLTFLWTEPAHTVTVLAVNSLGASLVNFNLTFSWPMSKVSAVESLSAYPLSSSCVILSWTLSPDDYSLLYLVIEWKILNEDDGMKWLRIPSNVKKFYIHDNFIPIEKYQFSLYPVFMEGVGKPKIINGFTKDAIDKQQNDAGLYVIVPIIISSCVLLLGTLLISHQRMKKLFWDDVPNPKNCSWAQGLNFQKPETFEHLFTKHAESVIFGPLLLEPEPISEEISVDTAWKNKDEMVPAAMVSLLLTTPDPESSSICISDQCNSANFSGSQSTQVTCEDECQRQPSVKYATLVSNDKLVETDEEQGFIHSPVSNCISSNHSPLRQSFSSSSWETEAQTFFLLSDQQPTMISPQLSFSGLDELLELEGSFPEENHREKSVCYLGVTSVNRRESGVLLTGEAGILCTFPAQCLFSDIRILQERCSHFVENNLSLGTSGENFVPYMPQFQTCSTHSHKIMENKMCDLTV

[4] = target: human leptin receptor tagged with eYFP, on HEK293 cells (Homo sapiens, UniProt P48357); assay: cell-based or functional assay
[5] = target: T4, extracellular domain of human leptin receptor with C-terminal 6xHis tag (human, UniProt P48357); assay: SPR; Biacore T200; LepR-ECD with His tag immobilised on CM5 chip by amine coupling; leptin-Fc and scFv-Fc antibodies in PBS pH 7.4, 1:2 serial dilutions, five concentrations, as analytes; 1:1 binding model; conditions: both partners purified
T4 construct: leptin receptor (LepR), human, extracellular domain; also called hLepR-ECD; hLepR-ECD-His; source: HEK293F, purified from supernatant (HisTrap FF Crude); not shown: 6xHis, C-terminal, kept

[6] = target: T5, extracellular domain of mouse leptin receptor with C-terminal 6xHis tag (mouse, UniProt P48356); assay: as above; conditions: both partners purified
T5 construct: leptin receptor (LepR), mouse, extracellular domain; also called mLepR-ECD; mLepR-ECD-His; source: HEK293F, purified from supernatant (HisTrap FF Crude); not shown: 6xHis, C-terminal, kept
T5 sequence (P48356 22-839): as the sequence (P48356 22-839) above

- binding result [1]: no binding
- IC50 [2]: 40 nM
- binding result [3]: no binding (tested: 5 ug/mL)
- EC50, hLepR-luciferase (SIE luciferase reporter of STAT3 phosphorylation, HEK293) [4]: 3.2 nM
- Kd [5]: 7.5 nM
- koff [5]: 0.052 s⁻¹
- kon [5]: 6.9e+06 M⁻¹ s⁻¹
B1: single-chain combinatorial antibody Ab06 (scFv-Fc) (scFv, V domains shown)
VH: QVQLVESGGGVVQPGRSLRLSCAASGFTFSSYGMHWVRQAPGKGLEWVAVISYDGSNKYYADSVKGRFTISRDNSKNTLYLQMNSLRAEDTAVYYCAKSLRNSFDYWGQGTLVTVSS
VL: EIVLTQSPGTLSLSPGERATLSCRASQSVSSNYLAWYQQKPGQAPRLLIYGASSRPTGIPDRFSGSGSGTDFTLTISRLEPEDFAVYYCQQYAASPLTFGGGTKLEIK
notes: identical to Ab11 except four residues in CDR3H; source: HEK293F, purified from supernatant (HiTrap Protein A)

- Kd [6]: 200 nM
B2: single-chain combinatorial antibody Ab11 (scFv-Fc) (scFv, V domains shown)
VH: B1 VH with S99G, L100Y, R101E, S103Y
VL: B1 VL
notes: CDR3H holds the motif ENYF; source: HEK293F, purified from supernatant (HiTrap Protein A)
